{"source": "paper PMC12567051", "about": "“Performing Dual Glucose Clamp Experiments in Sedated Farm Swine: A Practical Method” (Methods and Protocols, 2025)", "test": "Insulin pharmacokinetics during hyperinsulinemic-euglycemic clamp", "type": "in vivo", "settings": "24 clamps in 2 swine", "text": "One CSII was initiated with commercial insulin lispro (U-100, Eli Lilly and Company, Indianapolis, IN, USA) at 0.4 units/hour, and one with preservative-free saline or diluent via 2 commercial insulin pumps. This strategy was used to mimic real-world conditions and avoid potential occlusion of the catheters, while comparing occlusion rates between insulin and saline infusions. Postoperatively, the swine were monitored twice daily for signs of pain/discomfort, hypoglycemia, and infection. Glucose concentrations (trends) were also monitored using two real-time continuous glucose sensors (CGM G4 Dexcom Inc, San Diego, CA, USA) placed laterally on the lower abdomen.\nOnce the fasting animal was comfortably positioned in the sling apparatus, endogenous insulin secretion was suppressed using an octreotide infusion. An initial octreotide bolus dose (7.2 µg/kg) was administered 60 min prior to starting the clamp, followed by a maintenance dose of (3.6 µg/kg/h). […]\nAfter beginning the clamp study on the first swine, a second team ensured that duplicate laboratory and anesthesia equipment were set up and calibrated in the other half of the procedure room. […] Blood glucose measurements and insulin samples were obtained at 5 and 10 min intervals for 240 min, while other data, such as vital signs and gas concentrations, were recorded continuously.", "data": [{"substance": "insulin lispro", "values": [{"measurement": "time for insulin concentrations to return to near baseline", "setting": "after bolus insulin 0.15 IU/kg via CSII catheter, sedated farm swine", "result": "≤ 90", "unit": "min"}, {"measurement": "insulin Cmax", "setting": "sedated female farm swine, bolus insulin 0.15 IU/kg via CSII catheter (subcutaneous, abdomen), endogenous insulin suppressed with octreotide, glucose clamped at 85 mg/dL, mean", "result": 0.1085, "unit": "nM"}]}]}
